Measured values: PMC8096781, “FOXM1D potentiates PKM2‐mediated tumor glycolysis and angiogenesis” (Molecular Oncology, 2021)

Biological target: PKM2 (purchased from Abcam) (UniProt P14618 1-531)
Assay: cell-based or functional assay

PKM2 (purchased from Abcam), sequence (P14618 whole entry): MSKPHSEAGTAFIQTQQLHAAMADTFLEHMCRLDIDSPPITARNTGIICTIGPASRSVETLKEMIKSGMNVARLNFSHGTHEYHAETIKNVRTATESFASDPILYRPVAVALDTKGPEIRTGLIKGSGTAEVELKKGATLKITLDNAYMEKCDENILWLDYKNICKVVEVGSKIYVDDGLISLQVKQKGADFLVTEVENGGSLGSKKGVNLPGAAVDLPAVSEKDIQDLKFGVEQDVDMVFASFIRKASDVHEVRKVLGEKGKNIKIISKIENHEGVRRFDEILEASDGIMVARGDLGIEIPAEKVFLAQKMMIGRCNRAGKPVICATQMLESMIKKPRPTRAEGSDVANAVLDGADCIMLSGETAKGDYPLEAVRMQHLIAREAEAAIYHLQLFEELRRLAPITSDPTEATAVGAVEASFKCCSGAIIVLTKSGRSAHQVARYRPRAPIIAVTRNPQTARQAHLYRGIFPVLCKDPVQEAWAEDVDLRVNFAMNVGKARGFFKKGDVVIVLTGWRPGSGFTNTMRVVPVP

B1: recombinant Flag-FOXM1D (purified) (natural protein, UniProt Q08050-4 1-786, looked up)
chain: MKTSPRRPLILKRRRLPLPVQNAPSETSEEEPKRSPAQQESNQAEASKEVAESNSCKFPAGIKIINHPTMPNTQVVAIPNNANIHSIITALTAKGKESGSSGPNKFILISCGGAPTQPPGLRPQTQTSYDAKRTEVTLETLGPKPAARDVNLPRPPGALCEQKRETCADGEAAGCTINNSLSNIQWLRKMSSDGLGSRSIKQEMEEKENCHLEQRQVKVEEPSRPSASWQNSVSERPPYSYMAMIQFAINSTERKRMTLKDIYTWIEDHFPYFKHIAKPGWKNSIRHNLSLHDMFVRETSANGKVSFWTIHPSANRYLTLDQVFKQQKRPNPELRRNMTIKTELPLGARRKMKPLLPRVSSYLVPIQFPVNQSLVLQPSVKVPLPLAASLMSSELARHSKRVRIAPKVFGEQVVFGYMSKFFSGDLRDFGTPITSLFNFIFLCLSVLLAEEGIAPLSSAGPGKEEKLLFGEGFSPLLPVQTIKEEEIQPGEEMPHLARPIKVESPPLEEWPSPAPSFKEESSHSWEDSSQSPTPRPKKSYSGLRSPTRCVSEMLVIQHRERRERSRSRRKQHLLPPCVDEPELLFSEGPSTSRWAAELPFPADSSDPASQLSYSQEVGGPFKTPIKETLPISSTPSKSVLPRTPESWRLTPPAKVGGLDFSPVQTSQGASDPLPDPLGLMDLSTTPLQSAPPLESPQRLLSSEPLDLISVPFGNSSPSDIDVPKPGSPEPQVSGLAANRSLTEGLVLDTMNDSLSKILLDISFPGLDEDPLGPDNINWSQFIPELQ
PK activity of PKM2 with FBP; FOXM1D added at 10, 20 and 30 μg per 10 μg PKM2 (molar ratios about 0.665, 1.33 and 2); share of the activity abolished at 1.33-fold FOXM1D: ~49%
